As usually defined, the Kd is a measure of binding affinity in units of concentration. Read a low Kd as a tighter complex.

The target of this assay is UBE2L3 wild type (Mus musculus). Nature of the assay: MST.
Sequence of UBE2L3 wild type (Mus musculus) (B2R4A7 whole entry): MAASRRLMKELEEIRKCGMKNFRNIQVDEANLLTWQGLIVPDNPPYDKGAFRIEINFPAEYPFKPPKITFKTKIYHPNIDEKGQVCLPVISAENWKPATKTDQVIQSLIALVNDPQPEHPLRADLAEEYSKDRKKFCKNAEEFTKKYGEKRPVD

B1: GST-MuRF1RM (MuRF1 amino acids 1-115, RING and MFC domains) (domain or fragment)
chain: MDYKSGLIPDGNAMENLEKQLICPICLEMFTKPVVILPCQHNLCRKCANDIFQAANPYWTNRGGSVSMSGGRFRCPSCRHEVIMDRHGVYGLQRNLLVENIIDIYKQECSSRPLQ
modifications: red fluorescent dye NT-647, covalently, by amine coupling (in the fluorescence assay only)
With B1, binding was put at a Kd of 150 nM.

The values are drawn from article PMC12103069 (2025).
